US20140199315A1 (Biogen, published 2014)

T1: Sp35-Fc fusion protein (human Sp35 residues 1-532 fused to hinge and Fc of human IgG1) (human, UniProt Q96FE5 40-538)
T1 construct: also called LINGO-1-Fc; not shown: hinge and Fc region of human IgG1
T1 sequence: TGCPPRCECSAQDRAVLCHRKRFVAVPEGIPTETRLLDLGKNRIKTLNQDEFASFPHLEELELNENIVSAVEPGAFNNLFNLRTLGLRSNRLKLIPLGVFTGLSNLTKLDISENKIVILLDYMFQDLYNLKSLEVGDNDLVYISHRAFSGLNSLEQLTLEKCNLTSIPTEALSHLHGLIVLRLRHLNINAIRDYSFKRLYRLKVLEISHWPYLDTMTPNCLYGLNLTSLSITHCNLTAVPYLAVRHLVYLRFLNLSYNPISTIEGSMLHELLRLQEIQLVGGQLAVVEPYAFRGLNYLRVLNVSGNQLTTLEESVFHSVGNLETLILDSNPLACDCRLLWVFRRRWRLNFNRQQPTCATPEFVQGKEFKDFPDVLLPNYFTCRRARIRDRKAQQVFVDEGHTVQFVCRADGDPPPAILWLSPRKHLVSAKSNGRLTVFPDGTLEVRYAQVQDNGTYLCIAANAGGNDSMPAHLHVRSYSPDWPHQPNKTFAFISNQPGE

T2: Sp35 fragment amino acids 34-532 of SEQ ID NO:2 fused to hinge and Fc of IgG1 (human, UniProt Q96FE5 40-538)
T2 construct: the mature proteins should be the same; not shown: hinge and Fc regions of IgG1
T2 sequence: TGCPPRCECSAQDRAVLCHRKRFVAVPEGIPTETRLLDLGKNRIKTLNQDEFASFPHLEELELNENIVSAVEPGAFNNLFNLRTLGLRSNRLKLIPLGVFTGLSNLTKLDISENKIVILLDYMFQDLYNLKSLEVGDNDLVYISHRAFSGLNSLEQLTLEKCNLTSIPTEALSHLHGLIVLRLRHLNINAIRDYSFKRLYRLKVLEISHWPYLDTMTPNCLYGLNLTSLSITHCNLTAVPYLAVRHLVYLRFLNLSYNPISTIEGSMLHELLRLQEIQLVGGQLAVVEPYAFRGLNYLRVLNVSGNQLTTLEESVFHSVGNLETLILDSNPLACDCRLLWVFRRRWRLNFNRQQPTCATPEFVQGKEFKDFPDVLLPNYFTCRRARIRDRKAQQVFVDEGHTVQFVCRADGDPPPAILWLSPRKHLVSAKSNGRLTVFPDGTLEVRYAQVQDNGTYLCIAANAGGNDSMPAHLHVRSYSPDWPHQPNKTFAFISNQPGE

T3: full-length human Sp35 with N-terminal hemagglutinin (HA) tag, from lysate of transfected COS-1 cells (human, UniProt Q96FE5 40-620)
T3 construct: also called huSp35 (immunoprecipitation); not shown: HA tag at the N-terminus
T3 sequence: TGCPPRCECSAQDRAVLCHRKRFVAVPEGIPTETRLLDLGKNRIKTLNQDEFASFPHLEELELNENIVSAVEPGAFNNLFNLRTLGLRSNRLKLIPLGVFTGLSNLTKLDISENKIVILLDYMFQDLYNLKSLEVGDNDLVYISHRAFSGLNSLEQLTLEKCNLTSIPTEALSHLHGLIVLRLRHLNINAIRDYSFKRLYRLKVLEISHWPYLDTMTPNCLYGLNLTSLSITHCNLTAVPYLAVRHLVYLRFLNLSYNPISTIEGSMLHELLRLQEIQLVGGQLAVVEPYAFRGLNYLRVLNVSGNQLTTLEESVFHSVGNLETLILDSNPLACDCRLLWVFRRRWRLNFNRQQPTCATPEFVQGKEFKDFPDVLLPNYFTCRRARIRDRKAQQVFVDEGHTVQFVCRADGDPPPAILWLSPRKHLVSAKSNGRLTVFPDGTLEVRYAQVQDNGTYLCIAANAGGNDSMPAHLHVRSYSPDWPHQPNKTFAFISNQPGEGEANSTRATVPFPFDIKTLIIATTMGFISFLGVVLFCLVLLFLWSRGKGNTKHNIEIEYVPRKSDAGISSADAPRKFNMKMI

T4: Sp35 polypeptide consisting of amino acids 34-534 of human Sp35 (human, UniProt Q96FE5 40-540)
T4 construct: No fusion partner stated
T4 sequence: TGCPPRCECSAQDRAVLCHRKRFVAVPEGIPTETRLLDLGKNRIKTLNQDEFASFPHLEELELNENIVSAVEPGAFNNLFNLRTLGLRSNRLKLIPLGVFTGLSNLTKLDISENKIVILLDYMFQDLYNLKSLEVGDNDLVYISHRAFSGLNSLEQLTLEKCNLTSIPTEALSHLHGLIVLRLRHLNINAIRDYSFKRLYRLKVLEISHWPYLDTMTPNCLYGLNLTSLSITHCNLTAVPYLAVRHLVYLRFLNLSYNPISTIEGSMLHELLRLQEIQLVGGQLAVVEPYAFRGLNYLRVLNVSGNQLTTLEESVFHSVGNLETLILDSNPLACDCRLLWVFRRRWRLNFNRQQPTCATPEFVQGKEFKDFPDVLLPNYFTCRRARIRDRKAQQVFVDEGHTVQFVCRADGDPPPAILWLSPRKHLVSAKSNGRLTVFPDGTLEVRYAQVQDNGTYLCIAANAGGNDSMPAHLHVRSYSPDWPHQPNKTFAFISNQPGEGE

T5: mouse Sp35 protein (form in the assay not stated) (mouse, UniProt Q9D1T0 36-532, limits assumed)
T5 construct: also called mSp35; murine Sp35
T5 sequence (looked up): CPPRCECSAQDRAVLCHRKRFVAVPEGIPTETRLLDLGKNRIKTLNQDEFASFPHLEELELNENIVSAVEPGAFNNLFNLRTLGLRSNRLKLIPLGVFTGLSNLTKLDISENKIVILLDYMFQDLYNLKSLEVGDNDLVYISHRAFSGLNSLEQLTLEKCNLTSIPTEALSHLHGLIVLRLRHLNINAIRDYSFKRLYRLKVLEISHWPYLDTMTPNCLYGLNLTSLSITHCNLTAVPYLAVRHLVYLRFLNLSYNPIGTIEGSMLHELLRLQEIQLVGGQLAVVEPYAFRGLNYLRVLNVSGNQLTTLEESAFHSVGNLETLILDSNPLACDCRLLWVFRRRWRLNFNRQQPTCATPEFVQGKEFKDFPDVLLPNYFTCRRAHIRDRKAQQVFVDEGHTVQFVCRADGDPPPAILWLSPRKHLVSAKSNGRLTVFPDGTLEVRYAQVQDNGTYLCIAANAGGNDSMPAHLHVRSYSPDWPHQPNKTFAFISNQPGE

T6: full-length murine Sp35 with HA tag, from lysate of transfected cells (mouse, UniProt Q9D1T0 34-614, limits assumed)
T6 construct: also called mSp35 (immunoprecipitation); not shown: HA tag
T6 sequence (looked up): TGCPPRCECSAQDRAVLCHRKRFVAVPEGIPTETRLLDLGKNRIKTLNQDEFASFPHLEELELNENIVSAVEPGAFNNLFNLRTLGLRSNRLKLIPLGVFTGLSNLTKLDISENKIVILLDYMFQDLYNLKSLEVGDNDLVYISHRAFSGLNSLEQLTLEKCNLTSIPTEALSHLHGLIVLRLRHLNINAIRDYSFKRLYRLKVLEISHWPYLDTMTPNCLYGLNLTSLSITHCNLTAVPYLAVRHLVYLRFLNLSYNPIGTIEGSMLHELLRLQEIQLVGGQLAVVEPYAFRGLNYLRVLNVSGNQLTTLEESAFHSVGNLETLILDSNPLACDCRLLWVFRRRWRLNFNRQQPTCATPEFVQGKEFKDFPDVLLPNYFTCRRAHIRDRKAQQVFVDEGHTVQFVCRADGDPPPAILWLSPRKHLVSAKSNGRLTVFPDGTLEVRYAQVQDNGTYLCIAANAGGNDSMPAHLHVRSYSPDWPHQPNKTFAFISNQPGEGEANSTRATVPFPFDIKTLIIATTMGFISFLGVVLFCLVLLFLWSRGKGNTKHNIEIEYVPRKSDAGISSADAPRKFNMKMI

T7: mouse Sp35 protein expressed on transfected cells (mouse, UniProt Q9D1T0 36-614)
T7 construct: whole, on cells; also called mSp35
T7 sequence (looked up): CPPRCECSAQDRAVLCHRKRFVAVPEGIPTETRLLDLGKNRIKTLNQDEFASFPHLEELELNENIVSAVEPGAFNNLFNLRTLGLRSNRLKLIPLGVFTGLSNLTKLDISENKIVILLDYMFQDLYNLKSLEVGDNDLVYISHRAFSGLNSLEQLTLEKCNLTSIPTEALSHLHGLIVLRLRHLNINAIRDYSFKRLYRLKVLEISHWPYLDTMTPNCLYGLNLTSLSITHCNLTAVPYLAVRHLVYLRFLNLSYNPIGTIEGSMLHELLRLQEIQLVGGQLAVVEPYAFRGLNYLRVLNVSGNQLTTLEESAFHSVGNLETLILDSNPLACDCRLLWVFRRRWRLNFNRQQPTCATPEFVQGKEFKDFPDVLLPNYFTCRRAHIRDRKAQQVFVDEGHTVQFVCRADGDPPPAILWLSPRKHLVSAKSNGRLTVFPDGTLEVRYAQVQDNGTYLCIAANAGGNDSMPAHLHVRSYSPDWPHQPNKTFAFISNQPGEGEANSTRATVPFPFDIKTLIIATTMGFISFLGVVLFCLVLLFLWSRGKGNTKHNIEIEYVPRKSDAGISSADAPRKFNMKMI


What was measured:
[1] = target: human Sp35 protein expressed on transfected cells (human) (UniProt Q96FE5); assay: FACS on live human LINGO-1 (Sp35) transfected 293 cells, PE-labelled secondary antibody alone (no primary antibody), FL2-H
[2] = target: T1, Sp35-Fc fusion protein (human Sp35 …); assay: ELISA
[3] = target: T2, Sp35 fragment amino acids 34-532 of SEQ …; assay: ELISA
[4] = target: T3, full-length human Sp35 with N-terminal …; assay: immunoprecipitation
Protocol: (§1) To perform the immunoprecipitation, COS-1 cells expressing Sp35, fused to a hemaglutinin (HA) tag on the N-terminus, were produced by transiently transfecting COS-1 cells with a DNA construct which expresses the full-length Sp35 protein with an HA tag. Cells were harvested 48 hr after transfection and were lysed in 1 ml lysis buffer (50 mM HEPES, pH 7.5, 150 mM NaCl, 1.5 mM MgCl₂, 1 mM EGTA, 1% Triton X-100 and 10% glycerol) for 30 min at 4° C. After centrifugation at 14,000×g for 15 min, the supernatants were incubated with ProteinA/G-Sepharose beads (Santa Cruz) at 4° C. for 1 hr, and then incubated at 4° C. for 1 hr with either the 1A7 or the 2F3 anti-Sp35 murine monoclonal antibodies. The beads were washed 3 times with lysis buffer, boiled in Laemmli sample buffer, subjected to 4-20% SDS-PAGE, and analyzed by Western blotting using an antibody which recognizes the HA tag. As shown on the SDS-PAGE gel, monoclonal antibodies 1A7 and 2F3, immunoprecipitated human and murine Sp35 (FIG. 1). […] Similarly, monoclonal antibodies 1G7, 2B10, 2F3, 3P4C2.2D2, 3P4C8.2G9, Li01, Li03, Li05, Li06, Li07, Li08, Li11 and Li12 immunoprecipitate human or mouse or human and mouse Sp35 (See Table 3B). Additionally, Li08 immunoprecipitates AP-Sp35 and monoclonal antibodies 1B6.4 and 3E3.1 immunoprecipitate endogenous Sp35 (See Table 3B).

[5] = target: T4, Sp35 polypeptide consisting of amino …; assay: similar experiments (ELISA)
[6] = target: T5, mouse Sp35 protein (form in the assay …); assay: method not stated (Example 5); KD determination (Example 5, method not stated), murine Sp35
[7] = target: T6, full-length murine Sp35 with HA tag, …; assay: immunoprecipitation
Protocol: as §1

[8] = target: T7, mouse Sp35 protein expressed on …; assay: FACS
Description: To further characterize the binding properties of hybridoma-derived anti-Sp35 mAbs 1A7 and 2F3 produced as described in Example 3, binding to both fixed and live COS-7 or 293 cells expressing mouse or human Sp35 was compared.

binding result [2]	binding result [3]	binding result [4]	binding result [5]	Molecule	other results
–	–	–	–	2nd Ab only (antibody)	(FL2-H) Geom. Mean [1]: 6.6; (FL2-H) Mean [1]: 8.78; (FL2-H) Median [1]: 6.76; fraction of cells in the marker gate (FL2-H histogram) [1]: 5.52
binds	binds	binds	binds	3P1D10.2C3 (antibody, V domains shown, murine hybridoma monoclonal antibody) VH: QVQLQQSGAELARPGASVKLSCRASGYTFTSSWTQWVKQRPGQGLEWIGAIYPGDGDTRYTQKFKGKATLTADKSSSTAYMQLSSLASEDSAVYYCARHNSYGMDYWGQGTSVTVSS VL: DIVMTQSPSSLTVTAGEKVTMSCKSSQSLLNSGNQKNYLTWYQQKPGQPPKLLIYWASTRESGVPDRFTGSGSGTDFTLTINSVQAEDLAVYYCQNDYSYPLFTFGSGTKLEIR	–
binds	binds	binds	binds	3P1E11.3B7 (antibody, V domains shown) VH: QVQLQQSGAELARPGASVKLSCRASGYTFTSSWTQWVKQRPGQGLEWIGAIYPGDGDTRYTQKFKGKATLTADKSSSTAYMQLSSLASEDSAVYYCARHNSYGMDYWGQGTSVTVSS VL: DIVMTQSPSSLTVTAGEKVTMSCKSSQSLLNSGNQKSYLTWYQQKPGQPPKLLIYWASTRESGVPDRFTGSGSGTDFTLTINSVQAEDLAVYYCQNDYSYPLFTFGSGTKLEIR	–
–	–	–	–	1A7 (antibody, V domains shown, murine hybridoma monoclonal antibody; also called monoclonal antibody 1A7; MAb 1A7) VH: QVQLVQSGPELKKPGETVKISCKASGYTFTNYGMNWVKQAPGKGLKWMGWINTDTGEPTYTEDFQGRFAFSLETSASTVYLQFNNLKNEDTATYFCAREGVHFDYWGQGTTVTVSS VL: QIVLTQSPAIMSASPGEKVTMTCSASSSVSYMHWYQQKSGTSPKRWIYDTSKLASGVPARFSGSGSGTSYSLTISSMEAEDAATYYCQQWSSNPFTFGSGTKLEIK	Kd [6]: 20 µM
–	–	–	–	2F3 (antibody, V domains shown, murine hybridoma monoclonal antibody; also called monoclonal antibody 2F3; MAb 2F3) VH: EVKLEESGGGLVQPGGSMKLSCAASGFTFSDAWLDWVRQSPEKGLEWVAEIRSKANNHATNYAESVKGRFTISRDDSKSSVYLQMNSLRAEDTGIYFCTPSFAYWGQGTTVTVSS VL: DIQMTQSPASLSASVGETVTITCRASGNIYNYLAWFQQKQGKSPQLLVYNAKTLPDGVPSRFSGSGSGTQYFLKINSLQPEDFGSYYCQHFWAIPYTFGGGTKLEIKR	binding result [7]: binds; binding result [8]: binds
